Assay [1] deals with T1, Mouse Fc-human GDF15 (Mu IgG1Fc_Fxa_Hu GDF15) (human).
T1 construct: Whole entry is the fusion: mouse IgG1 Fc, FXa site and linker, mature human GDF15; described as dimeric; also called Murine dimeric IgG1 Fc-human GDF-15 with FXa cleavage site; control human GDF15
T1 chain: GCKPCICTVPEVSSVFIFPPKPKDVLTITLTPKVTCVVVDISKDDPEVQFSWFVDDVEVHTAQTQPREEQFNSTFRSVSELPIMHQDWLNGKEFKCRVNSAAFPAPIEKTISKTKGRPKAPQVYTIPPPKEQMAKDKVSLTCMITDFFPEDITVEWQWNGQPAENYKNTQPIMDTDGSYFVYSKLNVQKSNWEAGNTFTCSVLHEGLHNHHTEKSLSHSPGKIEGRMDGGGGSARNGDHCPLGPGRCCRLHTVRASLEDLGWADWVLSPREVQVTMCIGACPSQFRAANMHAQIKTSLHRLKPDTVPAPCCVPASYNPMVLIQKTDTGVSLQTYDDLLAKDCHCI
The assay can be described thus: SPR BIAcore T200; summary sentence for the clones of Table 6. As to the method:
(§1) Mouse Fc-human GDF15 (Mu IgG1Fc_Fxa_Hu GDF15; SEQ ID NO:2), Mouse Fc-mouse GDF15 (Mu IgG1Fc_Fxa_Mu GDF15; SEQ ID NO:5) and Mouse Fc-cynomolgus monkey GDF15 (Mu IgG1Fc_Fxa_Cyno GDF15; SEQ ID NO:4) were captured onto three different flow cells of a CM4 sensorchip (catalogue number BR100534, GE Healthcare) surface using the Mouse Antibody Capture Kit (BR100838, GE Healthcare) according to the manufacturer's protocol. The running and sample bufferwas 10 mM HEPES pH 7.4, 0.15M NaCl, 3 mM EDTA, 0.05% P-20 (HBS-EP+). The final capture levels of Mu IgG1Fc_Fxa_Hu GDF15, Mu IgG1Fc_Fxa_Mu GDF15 and Mu IgG1Fc_Fxa_Cyno GDF15 were 40 resonance units (RU), 32 RU and 25 RU respectively. Flow cell 1 was used as a reference flow cell. […] The dissociation was monitored for 2.8 hours and the surface was regenerated with 10 mM Glycine pH 1.7. Binding affinities and rate constants were determined for murine and cynomolgus monkey GDF15 by fitting the resulting sensorgram data to a 1:1 Langmuir model in BIAcore T200 Evaluation software version 2.0 (GE Healthcare).
(§2) Additionally, the binding of clone GDF15_001 to cynomolgus monkey and mouse GDF15 was measured using above mentioned BIAcore assay (Table 7).
In general terms: In SPR one partner is held on a chip, and binding of the other changes the refractive index at the surface.

In assay [2] the target is T1, Mouse Fc-human GDF15 (Mu IgG1Fc_Fxa_Hu …). Nature of the assay: SPR BIAcore T200, 37C; Fc-GDF15 captured, IgG as analyte. On the procedure: as §1, §2
The target is the same in assay [3]. The assay can be described thus: SPR BIAcore T200, 37C; Fc-GDF15 captured, IgG as analyte; average of runs. On the procedure:
as §1, §2

Assay [4] has the same target. Nature of the assay: SPR BIAcore T200, 37C; Fc-GDF15 captured, IgG as analyte; apparent KD.
Assay [5] has as its target Mouse Fc-mouse GDF15 (Mu IgG1Fc_Fxa_Mu GDF15) (mouse). The assay can be described thus: SPR BIAcore T200, 37C; Fc-GDF15 captured, IgG as analyte; average of runs.
Assay [6] deals with T2, Mouse Fc-cynomolgus monkey GDF15 (Mu IgG1Fc_Fxa_Cyno GDF15) (cynomolgus monkey).
T2 construct: Whole entry is the fusion: mouse IgG1 Fc, FXa site and linker, cynomolgus GDF15; described as dimeric; also called Murine dimeric IgG1 Fc-cyno GDF-15 with FXa cleavage site
T2 chain: T1 chain with H239R, R254H, A287E, T296M, S297N, I345V
The assay can be described thus: SPR BIAcore T200, 37C; Fc-GDF15 captured, IgG as analyte. On the procedure: as §1, §2

The target in assay [7] is T1, Mouse Fc-human GDF15 (Mu IgG1Fc_Fxa_Hu …). The description is as above. As to the method:
as §1, §2

Assay [8] has as its target Mouse Fc-mouse GDF15 (Mu IgG1Fc_Fxa_Mu GDF15) (mouse). The description is as above.
For assay [9], the target named is T1, Mouse Fc-human GDF15 (Mu IgG1Fc_Fxa_Hu …). Nature of the assay: SPR BIAcore T200, 37C; Fc-GDF15 captured, IgG as analyte; average of runs; apparent KD.
Assay [10] concerns the target T2, Mouse Fc-cynomolgus monkey GDF15 (Mu …). Nature of the assay: SPR BIAcore T200, 37C; Fc-GDF15 captured, IgG as analyte; average of runs. As to the method: as §1, §2
In assay [11] the target is T1, Mouse Fc-human GDF15 (Mu IgG1Fc_Fxa_Hu …). The description is as above. As to the method: as §1, §2

Substitutions are numbered along the chain they refer to. Several values for one entry are separate records, joined by “and”; a condition that tells them apart may be missing. Equal entries are not always repeated. Where two headings read alike, the source gives them in different places. Bounds are passed on as bounds.

B1: GDF15_0301 (antibody, mouse IgG1, kappa, V domains shown)
VH: QVQLQQPGAELVKPGASVKMSCKASGYPFEGWYIHWVKQRPGQGLEWMGWNNPRTGLTNHAQKFQGKATLTVDTSSSTAYMQLSSLTSEDSAVYYCARGVGADAAFDIWGQGTTLTVSS
VL: DIVLTQSPSSLSVSAGEKVTMSCRSSQSLLWKHGYNYLDWYQQKPGQPPKLLIYLDRNRAHGVPDRFTGSGSGTDFTLTISSVQAEDLAVYYCMQSFETPITFGGGTKLEIKR
notes: Tested in bivalent format; also called GDF15_301; mAB2
One may read the kon as the rate constant with which the complex forms. As usually defined, the koff is a measure of how fast the partners let go of each other. On to B1, for which the Kd in assay [1] was < 0.15 nM; in assay [2] it was < 0.01 nM; in assay [3] it was < 0.01 nM. For the same molecule, the kon is 3.36e+06 M⁻¹ s⁻¹ and 5.58e+06 M⁻¹ s⁻¹ and 5.22e+06 M⁻¹ s⁻¹ in [2]; 4.72e+06 M⁻¹ s⁻¹ in assay [3]. In [3], this molecule yielded a koff of 6.97e-06 s⁻¹.

B2: GDF15_001 (antibody, human IgG1, kappa, V domains shown)
VH: QVQLVQSGAEVKKPGSSVKVSCKASGYTFSSYNIDWVRQAPGQGLEWMGGINPIFGTAFYNQKFQGRVTITADESTSTAYMELSSLRSEDTAVYYCAREAITTVGAMDHWGQGTLVTVSS
VL: EIVLTQSPATLSLSPGERATLSCRTSQSVHNYLAWYQQKPGQAPRLLIYDASTRADGIPARFSGSGSGTDFTLTISSLEPEDFAVYYCQQFWSWPWTFGQGTKVEIKR
notes: Tested in bivalent format; IgG1 heavy chain, kappa light chain; also called ponsegromab; PF-06946860
As for B2, the Kd is < 0.01 nM in assay [4]; 0.142 nM in [5]; 0.00886 nM and 0.00671 nM and 0.00926 nM in assay [6]; 0.114 nM and 0.175 nM and 0.138 nM in [8]; < 0.01 nM in assay [9]; 0.00828 nM in assay [10]. For the same molecule, the Kd in assay [2] and in assay [3] was < 0.01 nM in each case. Also, the koff is 0.000356 s⁻¹ in assay [5]; 1.3e-05 s⁻¹ and 1.24e-05 s⁻¹ and 1.03e-05 s⁻¹ in [6]; 9.22e-06 s⁻¹ and 6.25e-06 s⁻¹ and 4.78e-06 s⁻¹ in assay [7]; 0.000292 s⁻¹ and 0.000431 s⁻¹ and 0.000347 s⁻¹ in assay [8]; 1.19e-05 s⁻¹ in assay [10]; 6.75e-06 s⁻¹ in assay [11]. Further, the off-rate (koff) in assay [2] was 4.78e-06 s⁻¹ and 9.22e-06 s⁻¹ and 6.25e-06 s⁻¹; in [3] it was 6.75e-06 s⁻¹. Moreover, the kon in [5] is 2.51e+06 M⁻¹ s⁻¹; in [6] it was 1.47e+06 M⁻¹ s⁻¹ and 1.85e+06 M⁻¹ s⁻¹ and 1.12e+06 M⁻¹ s⁻¹; in assay [7], 1.69e+06 M⁻¹ s⁻¹ and 2.03e+06 M⁻¹ s⁻¹ and 2.18e+06 M⁻¹ s⁻¹; in assay [8], 2.6e+06 M⁻¹ s⁻¹ and 2.5e+06 M⁻¹ s⁻¹ (2×); in assay [10], 1.48e+06 M⁻¹ s⁻¹; in [11], 1.97e+06 M⁻¹ s⁻¹. For the same molecule, the kon is 1.69e+06 M⁻¹ s⁻¹ and 2.18e+06 M⁻¹ s⁻¹ and 2.03e+06 M⁻¹ s⁻¹ in assay [2]; 1.97e+06 M⁻¹ s⁻¹ in assay [3]. Besides, the T½ min is 14.8 h and 15.5 h and 18.7 h in [6]; 20.9 h and 30.8 h and 40.3 h in assay [7]; 0.66 h and 0.447 h and 0.555 h in assay [8]; 40.3 h and 20.9 h and 30.8 h in assay [2].

B3: GDF15_0470 (antibody, human IgG1, kappa, V domains shown)
VH: QVQLVQSGAEVKKPGASVKVSCKASGYPFEGWYIHWVRQAPGQGLEWMGWNNPRTGLTNHAQKFQGRVTMTRDTSISTAYMELSRLRSDDTAVYYCARGVGADAAFDIWGQGTMVTVSS
VL: EIVLTQSPATLSLSPGERATLSCRSSQSLLWKHGYNYLDWYQQKPGQAPRLLIYLDRNRAHGIPARFSGSGSGTDFTLTISSLEPEDFAVYYCMQSFETPITFGQGTKVEIKR
notes: Tested in bivalent format; also called GDF15-470
With B3, the Kd in [1] was < 0.15 nM. Also, in assay [2], the Kd was < 0.01 nM; the T½ min was 3.7 h and 4.47 h; the koff was 5.21e-05 s⁻¹ and 4.3e-05 s⁻¹; the kon is 1.2e+07 M⁻¹ s⁻¹ and 1.3e+07 M⁻¹ s⁻¹. Besides, in assay [3], the Kd is < 0.01 nM, the koff worked out at 4.76e-05 s⁻¹ and the association rate constant (kon) worked out at 1.25e+07 M⁻¹ s⁻¹.
